{"source": "patent US20130115589A1", "about": "“Pharmaceutical Composition for Treatment and Prevention of Herpes Virus Infections” (THE UNIVERSITY OF TOKYO, priority 2010, published 2013)", "molecules": {"B1": {"name": "NMHC-IIBrod-Ig: fusion protein of Ig and the C-terminal fragment of NMHC-IIB, soluble form of NMHC-IIB (protein)", "chain": "FAQSKESEKKLKSLEAEILQLQEELASSERARRHAEQERDELADEITNSASGKSALLDEKRRLEARIAQLEEELEEEQSNMELLNDRFRKTTLQVDTLNAELAAERSAAQKSDNARQQLERQNKELKAKLQELEGAVKSKFKATISALEAKIGQLEEQLEQEAKERAAANKLVRRTEKKLKEIFMQVEDERRHADQYKEQMEKANARMKQLKRQLEEAEEEATRANASRRKLQRELDDATEANEGLSREVSTLKNRLRRGGPISFSSSRSGRRQLHLEGASLELSDDDTESKTSDVNETQPPQSE", "modifications": "left off: a dimerising Fc or GST; small tags and cut ends"}}, "biological_target": "gB of HSV-1 (Human herpesvirus 1, UniProt P06436)", "details": "293T cells", "data": [{"molecule": "B1", "values": [{"measurement": "staining of cells expressing gB on their surface", "value": "stained"}]}]}
